Laboratory results published in US10414821 (dated 2019).

How the values were obtained:
PD-1 protein = PD-1 protein (UniProt Q15116 25-167); test: blocking ELISA (PD-1/PD-L1)
[1] = biological target: purified recombinant PD-1 fusion protein (Sino Biological Inc, Cat #: 10377-H08H) (human, UniProt Q15116 25-170); test: ELISA
purified recombinant PD-1 fusion protein (Sino Biological Inc, Cat #: 10377-H08H), sequence (Q15116 25-170): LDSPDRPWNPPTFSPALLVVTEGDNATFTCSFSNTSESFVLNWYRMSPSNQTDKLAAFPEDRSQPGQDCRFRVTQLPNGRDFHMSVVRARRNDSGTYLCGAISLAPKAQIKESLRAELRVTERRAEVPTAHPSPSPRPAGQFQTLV

PD-1 protein, sequence (Q15116 25-167): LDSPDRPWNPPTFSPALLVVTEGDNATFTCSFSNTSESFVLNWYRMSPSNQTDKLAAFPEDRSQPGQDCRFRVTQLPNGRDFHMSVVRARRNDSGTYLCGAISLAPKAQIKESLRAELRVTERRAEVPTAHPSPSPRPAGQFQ

IC50 (PD-1 protein): 0.288 nM | EC50 [1]: 0.0371 nM
B1: BA08-1 (antibody, V domains shown)
VH: QVQLVQSGAEVKKPGASVKVSCKASGYTFTSYYMYWVRQAPGQGLEWMGGVNPSNGGTNFNEKFKSRVTITADKSTSTAYMELSSLRSEDTAVYYCARRDYRYDMGFDYWGQGTTVTVSS
VL: EIVLTQSPATLSLSPGERATISCRASKGVSTSGYSYLHWYQQKPGQAPRLLIYLASYLESGVPARFSGSGSGTDFTLTISSLEPEDFATYYCQHSRELPLTFGTGTKVEIK
